# Assay results: patent publication US20190194358A1 (ARIZONA BOARD OF REGENTS A BODY CORPORATE OF THE STATE OF …, published 2019)
# Read-outs that look alike come from different tables or passages of the source. Ends that are not written are not given here.
# B1: peptide of FIG. 60C (peptide)
# peptide: WMDDIDAPQDEWWVFHHGSC
# notes: Unpurified library peptide
# B2: TBPL005 (peptide)
# peptide: GHKVVPQRQIRHAYNRYGSC
# notes: Clone from mRNA display on a doped TRF26 library; synthesised and HPLC purified
# B3: TRF26 H12F point-mutant (peptide)
# peptide: AHKVVPQRQIRFAYNRYGSC
# B4: TRF26 P6Y point-mutant (peptide)
# peptide: AHKVVYQRQIRHAYNRYGSC
# B5: TBPL025 (peptide)
# peptide: GHKVVPQRQMRHAYNRNGSC
# notes: Clone from mRNA display on a doped TRF26 library
# B6: peptide of FIG. 60D (peptide)
# peptide: DFLWSKSGILSHASWNHGSC
# notes: Unpurified library peptide
# B7: BP1 on dsDNA (peptide)
# affinity element BP1: GTEKGTSGWLKTGSC
# modifications: C-terminal Cys joined through SMCC to the DNA linker
# notes: also called BP1 alone conjugated to the double-stranded DNA linker
# B8: TNF1-TNF4-KC-stBu (designed binder)
# peptide 1: MKSIIPMSVAQHQGPIKGSG
# peptide 2: FMNYPIKVPILVVPIGRGSG
# modifications: not fully specified (C-terminus, bridges); also: chain 1 C-terminus on Lys α-amine, chain 2 C-terminus on same Lys ε-amine (branched dimer)
# notes: Lysine linker followed by Cys(StBu); also called TNFa1-TNFa 4- KC(stBu)
# B9: peptide of FIG. 60F (peptide)
# peptide: KMRTITYYHLQAILKQRGSC
# notes: Unpurified library peptide
# B10: peptide of FIG. 60I (peptide)
# peptide: AMMRMDMAGLNKIVFHQGSC
# notes: Unpurified library peptide
# B11: peptide of FIG. 60G (peptide)
# peptide: DNSRRSAKQRIFMHVDLGSC
# notes: Unpurified library peptide
# B12: peptide of FIG. 60B (peptide)
# peptide: NIRMLLRFTVFPAQKLIGSC
# notes: Unpurified library peptide (~50 to 70% pure)
# B13: peptide of FIG. 60J (peptide)
# peptide: DRDTPWETTNKTEEGIEGSC
# notes: Unpurified library peptide
# B14: BP2 on dsDNA (peptide)
# affinity element BP2: EGEWTEGKLSLRGSC
# modifications: C-terminal Cys joined through SMCC to the DNA linker
# notes: also called BP2 alone conjugated to the double-stranded DNA linker
# B15: SYN21-22 (designed binder)
# peptide 1: QYHHFMNLKRQGRAQAYGSG
# peptide 2: HAYKGPGDMRRFNHSGMGSG
# modifications: also: both chains joined by C-terminus to the amines of a branching Lys, Lys-Cys linker with biotinylated Cys thiol
# notes: Lysine linker followed by cysteine; the thiol of the cysteine biotinylated for the protein array; also called anti-TRF synbody
# B16: TNF1 lead peptide (peptide)
# peptide: FERDPLMMPWSFLQSRQGSC
# B17: TNF1-opt (D4S+P5Y+M7K+S11K quadruple mutant) (peptide)
# peptide: FERSYLKMPWKFLQSRQGSC
# B18: TNF1 S11K point-mutant (peptide)
# peptide: FERDPLMMPWKFLQSRQGSC
# B19: TNF1 D4S+P5Y+S11K triple mutant (peptide)
# peptide: FERSYLMMPWKFLQSRQGSC
# notes: also called D4S + P5Y + S1IK (so in the source)
# B20: peptide of FIG. 60L (peptide)
# peptide: TEDNDYMVVSMVVTMEPGSC
# notes: Unpurified library peptide
# B21: peptide of FIG. 60K (peptide)
# peptide: QENDQQSFGLGGMMGQAGSC
# notes: Unpurified library peptide
# Legend:
# transferrin [1] = target: T1, transferrin (human, UniProt P02787 20-698); test: SPR (Biacore A-100), biotinylated transferrin captured on Neutravidin, unpurified peptide injected for 60 s
# T1 construct: also called TRF; pooled human transferrin (Sigma)
# transferrin [2] = target: T1, transferrin; test: SPR (Biacore T100), transferrin immobilised (9758 RU), steady state affinity fit
# Text: Affinity plots were generated for each peptide and fit using a steady state affinity model.
# transferrin [3] = target: T1, transferrin; test: reference TRF26 lead peptide
# transferrin [4] = target: T1, transferrin; test: affinity characterisation of Example 29 (SPR; format for the purified peptides not stated)
# transferrin [5] = target: T1, transferrin; test: SPR (Biacore A-100), biotinylated transferrin captured on Neutravidin, unpurified peptide injected for 60 s; remark: listed apart in the source
# Gal80 = target: T2, Gal80 (UniProt P04387 1-435, limits assumed); test: SPR, gal80 immobilised on the chip; Kd from on and off rates
# T2 construct: Cy3/Cy5 labelled on arrays, immobilised for SPR and ELISA
# T2 sequence (looked up): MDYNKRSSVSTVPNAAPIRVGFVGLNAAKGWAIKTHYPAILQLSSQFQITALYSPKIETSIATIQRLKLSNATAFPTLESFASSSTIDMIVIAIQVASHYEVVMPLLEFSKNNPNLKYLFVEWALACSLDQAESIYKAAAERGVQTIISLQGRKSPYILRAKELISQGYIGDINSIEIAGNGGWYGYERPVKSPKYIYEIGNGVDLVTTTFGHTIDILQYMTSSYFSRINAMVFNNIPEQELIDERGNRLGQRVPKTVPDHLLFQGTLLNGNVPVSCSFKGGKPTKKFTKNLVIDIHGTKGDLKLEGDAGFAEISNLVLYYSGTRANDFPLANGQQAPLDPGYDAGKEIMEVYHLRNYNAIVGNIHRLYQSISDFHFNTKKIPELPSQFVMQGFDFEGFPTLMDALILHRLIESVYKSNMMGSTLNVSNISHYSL
# [6] = target: T3, Tumor Necrosis Factor-alpha (UniProt P01375 77-233); test: SPR (Biacore T-100), TNF-α amine-coupled to a CM5 chip, synbody concentration series
# T3 construct: Immobilised on pipette tips or SPR chips (amine coupling or biotin capture); also called TNF-α; TNF-alpha
# Experimental: Candidate TNF-α binding synbodies were screened by surface plasmon resonance (SPR) on a Biacore T-100 SPR instrument to verify binding for TNF-α. A CM5 chip was activated using standard amine coupling chemistry and TNF-α was immobilized. Each synbody was prepared in HBS—N buffer with excess carboxymethyl dextran added to the running buffer to minimize non-specific binding to the chip surface.
# transferrin [7] = target: T1, transferrin; test: SPR (Biacore A-100), biotinylated transferrin captured on Neutravidin, unpurified peptide injected for 60 s; remark: listed apart in the source
# transferrin [8] = target: T1, transferrin; test: as above; remark: listed apart in the source
# transferrin [9] = target: T1, transferrin; test: as above; remark: listed apart in the source
# transferrin [10] = target: T1, transferrin; test: as above; remark: listed apart in the source
# transferrin [11] = target: T1, transferrin; test: as above; remark: listed apart in the source
# GRP58 = target: T4, GRP58 (human, UniProt P30101 25-505, limits assumed); test: Invitrogen ProtoArray Human Protein Microarray v4.0; biotinylated synbody, fluorescently labelled streptavidin; fluorescence intensity
# T4 construct: GST fusion adsorbed on a nitrocellulose slide
# T4 sequence (looked up): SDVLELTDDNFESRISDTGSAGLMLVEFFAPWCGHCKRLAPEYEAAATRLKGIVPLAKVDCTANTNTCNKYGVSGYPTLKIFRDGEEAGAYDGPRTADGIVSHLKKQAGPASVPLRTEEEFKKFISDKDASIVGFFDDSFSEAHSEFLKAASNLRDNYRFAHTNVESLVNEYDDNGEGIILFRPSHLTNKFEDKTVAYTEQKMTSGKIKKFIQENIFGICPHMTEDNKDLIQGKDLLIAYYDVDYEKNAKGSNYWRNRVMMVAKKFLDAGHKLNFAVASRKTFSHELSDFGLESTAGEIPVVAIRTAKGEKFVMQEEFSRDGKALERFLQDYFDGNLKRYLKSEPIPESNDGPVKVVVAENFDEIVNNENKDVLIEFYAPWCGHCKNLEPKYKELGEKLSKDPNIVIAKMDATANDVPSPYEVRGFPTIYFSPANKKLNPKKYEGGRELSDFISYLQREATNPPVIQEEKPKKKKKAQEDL
# Experimental: (§1) The prescribed cover slip was placed over the array and adjusted to remove air bubbles. The array was incubated in a 50 ml conical tube, printed side up, for 1.5 hours at 4 C without shaking. The array was then removed from the conical tube inserted diagonally into the array chamber, kept on ice. 8 ml probing buffer was added to the chamber wall. The cover slip was removed and the array was incubated in probing buffer for 1 minute on ice. The probing buffer was decanted and drained. Two further washings were performed adding 8 ml probing buffer, incubating on ice for 1 minute, and decanting and draining. 5 nM fluorescently labeled streptavidin diluted in 6 ml probing buffer was incubated on the array for 30 minutes on ice in the dark, after which the solution was decanted and drained. Three wash steps were performed, each by adding 8 ml probing buffer, incubating for 1 minute on ice, decanting, and draining. The array was removed from the chamber, centrifuged at 800×g for 5 minutes at room temperature. The array was dried in the dark for 60 minutes at room temperature, after which it was scanned using a fluorescent microarray scanner and data was taken and analyzed.
# PSMA3 = target: T5, PSMA3 (human, UniProt P25788); test: as above
# T5 construct: GST fusion on the array
# Experimental: as §1
# [12] = target: T6, SC1 Transcription factor 19 (human, UniProt Q9Y242); test: as above
# T6 construct: GST fusion on the array
# T6 sequence (looked up): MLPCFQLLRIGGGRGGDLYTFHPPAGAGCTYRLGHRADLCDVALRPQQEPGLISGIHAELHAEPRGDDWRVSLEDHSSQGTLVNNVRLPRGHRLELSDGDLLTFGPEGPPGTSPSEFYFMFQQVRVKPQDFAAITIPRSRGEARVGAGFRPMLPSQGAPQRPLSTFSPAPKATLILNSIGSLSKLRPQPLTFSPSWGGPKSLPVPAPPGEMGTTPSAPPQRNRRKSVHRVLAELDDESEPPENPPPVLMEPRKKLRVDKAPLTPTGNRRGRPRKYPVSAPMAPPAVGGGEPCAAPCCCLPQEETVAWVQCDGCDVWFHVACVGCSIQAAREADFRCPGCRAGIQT
# Experimental: as §1
# [13] = target: T3, Tumor Necrosis Factor-alpha; test: SPR, kinetic fits of sensorgrams
# [14] = target: T3, Tumor Necrosis Factor-alpha; test: SPR (Biacore A100), TNF-α captured, equilibrium response over a concentration series
# Experimental: (§2) Point-mutant libraries were prepared in 96-well stock plates From the stock plate, peptides were diluted to 50 μM concentration in Biacore HBS-EP buffer (GE Healthcare, Piscataway, N.J.) containing 1 mg/ml carboxymethyl-dextran (Sigma-Aldrich, St. Louis, Mo.) to reduce non-specific binding to the CM-5 SPR chip surface. TNF-αt was captured on a CM-5 chip surface at different capture levels on spots 1, 2, 4, and 5 across all four flow cells corresponding to a 40-200 RU range of predicted Rₘₐₓ binding responses. Spot 3 contained only immobilized neutravidin and served as a reference spot.
# (§3) Purified point-mutant affinities were measured on the Biacore A100 using SPR equilibrium binding response across a series of peptide concentrations on an SPR chip with TNF-α captured as described above.
# [15] = target: T3, Tumor Necrosis Factor-alpha; test: SPR; reference TNF1 lead peptide
# Experimental: as §2, §3
# [16] = target: T3, Tumor Necrosis Factor-alpha; test: SPR, kinetic fits of several sensorgrams; Kd from kinetic fits, not equilibrium responses
# [17] = target: T3, Tumor Necrosis Factor-alpha; test: fluorescence anisotropy; fluorescence anisotropy
# [18] = target: T3, Tumor Necrosis Factor-alpha; test: SPR, kinetic fits of sensorgrams (printed 'kon' in a sentence on the off-rate)
# [19] = target: T3, Tumor Necrosis Factor-alpha; test: SPR (Biacore A100), TNF-α captured, equilibrium response over a concentration series; remark: listed apart in the source
# Experimental: as §2, §3
# [20] = target: T3, Tumor Necrosis Factor-alpha; test: SPR-derived binding energies
# [21] = target: T3, Tumor Necrosis Factor-alpha; test: SPR; reference TNF1 lead peptide; remark: listed apart in the source
# Experimental: as §2, §3
# [22] = target: T3, Tumor Necrosis Factor-alpha; test: SPR (Biacore A100) point-mutant screen at 50 µM peptide
# Experimental: as §2
# Using the prepared 96-well plates and Biacore A100 SPR instrument, four peptides were flowed separately, in parallel, through the four flow cells over all 4 TNF-α spots and the neutravidin reference spot, with a 60 second association phase and 300 second dissociation phase. SPR sensorgrams were recorded for each peptide response with all 4 TNF-α spots and the neutravidin reference spot across the four flow cells on the SPR chip. Surface regeneration was performed after every 12 injections in each flow cell with Biacore Glycine 2.5 regeneration solution (GE Healthcare, Piscataway, N.J.). Point-mutant reference subtracted, peptide molecular weight adjusted, responses at the late binding region of the sensorgram (a few seconds before dissociation) were compared to the response of the TNF1 lead
# [23] = target: T3, Tumor Necrosis Factor-alpha; test: SPR; difference to the TNF1 lead peptide
# Experimental: as §2, §3
# [24] = target: T3, Tumor Necrosis Factor-alpha; test: SPR equilibrium binding (Biacore A100), TNF-α captured on the chip
# transferrin [25] = target: T1, transferrin; test: SPR (Biacore A-100), biotinylated transferrin captured on Neutravidin, unpurified peptide injected for 60 s; remark: listed apart in the source
# transferrin [26] = target: T1, transferrin; test: as above; remark: listed apart in the source
# T1 sequence (P02787 20-698 limits assumed): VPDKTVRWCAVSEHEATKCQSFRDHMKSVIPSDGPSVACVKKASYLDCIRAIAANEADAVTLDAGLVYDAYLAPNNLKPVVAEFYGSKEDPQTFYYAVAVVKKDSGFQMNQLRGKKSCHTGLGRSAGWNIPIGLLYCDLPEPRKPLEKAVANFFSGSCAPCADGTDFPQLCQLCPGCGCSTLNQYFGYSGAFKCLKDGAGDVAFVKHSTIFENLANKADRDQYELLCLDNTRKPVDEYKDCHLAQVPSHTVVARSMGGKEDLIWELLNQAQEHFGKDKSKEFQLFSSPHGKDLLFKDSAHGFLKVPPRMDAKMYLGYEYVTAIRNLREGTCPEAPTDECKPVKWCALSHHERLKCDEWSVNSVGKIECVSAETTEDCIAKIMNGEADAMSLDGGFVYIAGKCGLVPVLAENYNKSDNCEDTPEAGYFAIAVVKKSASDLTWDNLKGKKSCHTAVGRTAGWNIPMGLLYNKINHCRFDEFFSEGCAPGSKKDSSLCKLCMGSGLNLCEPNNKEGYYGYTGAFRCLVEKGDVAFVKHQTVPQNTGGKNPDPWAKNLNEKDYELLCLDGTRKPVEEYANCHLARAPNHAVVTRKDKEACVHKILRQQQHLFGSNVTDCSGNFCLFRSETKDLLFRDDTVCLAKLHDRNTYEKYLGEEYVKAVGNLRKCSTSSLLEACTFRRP
# T3 sequence (P01375 77-233 limits assumed): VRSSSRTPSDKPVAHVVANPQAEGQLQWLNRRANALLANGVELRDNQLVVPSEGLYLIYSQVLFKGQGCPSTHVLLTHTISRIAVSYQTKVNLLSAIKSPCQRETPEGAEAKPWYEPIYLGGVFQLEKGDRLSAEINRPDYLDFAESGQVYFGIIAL
# T5 sequence (P25788 whole entry, the tested form may be a part): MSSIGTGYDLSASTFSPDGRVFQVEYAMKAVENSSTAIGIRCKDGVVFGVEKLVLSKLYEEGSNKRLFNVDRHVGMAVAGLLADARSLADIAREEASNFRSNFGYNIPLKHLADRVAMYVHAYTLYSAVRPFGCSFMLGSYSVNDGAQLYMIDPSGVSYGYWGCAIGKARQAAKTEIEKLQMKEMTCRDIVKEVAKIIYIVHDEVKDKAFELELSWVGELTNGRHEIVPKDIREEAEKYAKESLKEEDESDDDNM
binder,measurement,setting,value
B1,binding result,transferrin [1],binds
B2,Kd,transferrin [2],150 µM
B3,Kd Fold-Change Relative to Lead,transferrin [3],8.8 fold
same,Binding ΔG,transferrin [4],-6.85 kcal/mol
same,Kd,transferrin [4],9.7 µM
B4,Kd Fold-Change Relative to Lead,transferrin [3],10 fold
same,Binding ΔG,transferrin [4],-6.93 kcal/mol
same,Kd,transferrin [4],8.6 µM
B5,Kd,transferrin [2],150 µM
B6,binding result,transferrin [5],binds
B7,Kd,Gal80,0.482 µM
B8,binding result,[6],no binding
B9,binding result,transferrin [7],binds
B10,binding result,transferrin [8],binds
B11,binding result,transferrin [9],binds
B12,binding result,transferrin [10],binds
B13,binding result,transferrin [11],binds
B14,Kd,Gal80,0.982 µM
B15,binding result,GRP58,binds
same,binding result,PSMA3,binds
same,binding result,[12],binds
B16,koff,[13],1.6 s⁻¹
same,Binding ΔG,[14],-5.21 kcal/mol
same,Kd,[14],160 µM
B17,Kd Fold-Change Relative to Lead,[15],100 fold
same,Kd,[16],0.7 µM
same,Kd,[17],1.1 µM
same,koff,[18],0.2 s⁻¹
same,Kd,[19],1.6 µM
same,Observed Binding ΔG,[19],-7.97 kcal/mol
same,difference in observed binding energy relative to D4S+P5Y+S11K,[20],-0.94 kcal/mol
same,difference in observed binding energy relative to P5Y+M7K,[20],-1.73 kcal/mol
same,difference in observed binding energy relative to P5Y+S11K,[20],-1.66 kcal/mol
B18,Kd Fold-Change Relative to Lead,[21],3.9 fold
same,fold enhancement in SPR binding response relative to TNF1,[22],≥ 15 fold
same,Component Binding ΔG Contribution,[23],-0.82 kcal/mol
same,Binding ΔG,[14],-6.03 kcal/mol
same,Kd,[14],40 µM
B19,Kd Fold-Change Relative to Lead,[15],23 fold
same,Fold Change (Ka mutant / Ka TNF1),[24],23 fold
same,Kd,[19],7 µM
same,Observed Binding ΔG,[19],-7.03 kcal/mol
same,difference in observed binding energy relative to P5Y+S11K,[20],-0.72 kcal/mol
B20,binding result,transferrin [25],binds
B21,binding result,transferrin [26],binds
